Test results from patent US20140099313A1.

Tests used:
[1] = molecular target: human IL-13 wild type (human) (UniProt P35225); test: competition, cell surface RBA: IL-13 to IL-13Rα2 on COS cells
[2] = molecular target: human IL-13 wild type (human) (UniProt P35225); test: competition, ELISA RBA: IL-13 to IL-13Rα2/Fc

Chain of human IL-13 wild type (human) (P35225 other isoform, or with tags, fused parts or gaps limits assumed): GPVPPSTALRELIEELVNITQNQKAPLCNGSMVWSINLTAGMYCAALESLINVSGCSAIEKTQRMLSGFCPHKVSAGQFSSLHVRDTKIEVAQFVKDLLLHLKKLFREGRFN

B1: MJ2-7 (antibody, from another filing, V domains shown)
VH: EVQLQQSGAELVKPGASVKLSCTGSGFNIKDTYIHWVKQRPEQGLEWIGRIDPANDNIKYDPKFQGKATITADTSSNTAYLQLNSLTSEDTAVYYCARSEENWYDFFDYWGQGTTLTVSS
VL: DVLMTQTPLSLPVSLGDQASISCRSSQSIVHSNGNTYLEWYLQKPGQSPKLLIYKVSNRFSGVPDRFSGSGSGTDFTLKISRVEAEDLGVYYCFQGSHIPYTFGGGTKLEIK
percent inhibition at 100 nM [1]: 70% | percent inhibition at 100 nM [2]: 60%
